{"source": "paper PMC7954794", "about": "“Protein context shapes the specificity of SH3 domain-mediated interactions in vivo” (Nature Communications, 2021)"}
{"tested_on": "SH3-deleted bait proteins (1xFLAG)", "assay": "Western blot expression level of SH3-deleted baits (Fig. S1F-G)", "assay_type": "cell-based, Saccharomyces cerevisiae", "conditions": "Western blot Flag signal, 1xFLAG-tagged WT or SH3-deleted bait; sheet FigS1F-G", "experimental": "Precultures of yeast cells expressing baits fused with the DHFR F[1,2]-FLAG were grown overnight at 30 °C with agitation in synthetic complete medium. The next day, cells were expanded in synthetic complete medium to reach their exponential phase (OD600 of around 1.0), pelleted, and frozen at −80 °C. The equivalent of fifty OD600 of cells was resuspended in ice-cold yeast lysis buffer (10 mM Tris-HCl pH 7.4, 150 mM NaCl, 0.5 mM EDTA (Millipore Sigma), 1% Triton X-100 (Millipore Sigma), and one cOmplete Mini Protease Inhibitor Cocktail (Millipore Sigma) per 10 mL) with […] glass beads (Millipore Sigma) and disrupted at 4 °C by 10 cycles of 2 min vortexing and 2 min cooldown. The equivalent of […] of lysed cells was used for the immunoprecipitation of the bait proteins using FLAG-M2 agarose beads (Millipore Sigma). The beads were incubated with the cell lysates for 120 min at 4 °C with a slow rotation, followed by three washes with the yeast lysis buffer.\nProtein extracts and affinity-purified baits from yeast and human lysed cells were migrated on 10% polyacrylamide gels. The separated proteins were then transferred to nitrocellulose membranes. Validation of correct protein loading was done with ponceau staining of the membranes. Before the primary antibody incubations, membranes were blocked in 5% milk. Protein signals were detected on an Amersham Imager 600RGB (GE Healthcare) following the incubation of the membranes with the appropriate HRP-conjugated secondary antibodies and the Clarity Western ECL Substrate (Bio-Rad). The antibodies used in this study are M2-HRP (A8592, Sigma, 1/50,000), rabbit anti-FLAG (F7425, Sigma, 1/1000), PAK (SC-881, Santa Cruz, 1/200), p130cas/BCAR1 (SC-860, Santa Cruz, 1/200), actin (Cell Signaling Technology, 1/2000), anti-mouse HRP (Cell Signaling Technology, 1/10,000) and anti-rabbit HRP (Cell Signaling Technology, 1/10,000). The quantification of the WB signals was performed with the Amersham Imager 600 analysis software (GE Healthcare)."}
{"molecule": "Sho1 WT (protein, UniProt P40073 1-367, looked up) High osmolarity signaling …: MSISSKIRPTPRKPSRMATDHSFKMKKFYADPFAISSISLAIVSWVIAIGGSISSASTNESFPRFTWWGIVYQFLIICSLMLFYCFDLVDHYRIFITTSIAVAFVYNTNSATNLVYADGPKKAAASAGVILLSIINLIWILYYGGDNASPTNRWIDSFSIKGIRPSPLENSLHRARRRGNRNTTPYQNNVYNDAIRDSGYATQFDGYPQQQPSHTNYVSSTALAGFENTQPNTSEAVNLHLNTLQQRINSASNAKETNDNSNNQTNTNIGNTFDTDFSNGNTETTMGDTLGLYSDIGDDNFIYKAKALYPYDADDDDAYEISFEQNEILQVSDIEGRWWKARRANGETGIIPSNYVQLIDGPEEMHR", "Flag": 42239}
{"molecule": "Pin3 WT (protein, UniProt Q06449 2-215, looked up) [PSI+] inducibility protein 3: SASLINRSLTNIRTELDFLKGSNVISNDVYDQINKSLPAKWDPANAPRNASPASLEYVEALYQFDPQQDGDLGLKPGDKVQLLEKLSPEWYKGSCNGRTGIFPANYVKPAFSGSNGPSNLPPPPQYKAQELQQIPTQNSAASSYQQQPFPPPSTNYYQQPQQQPQQAPPPQQQQQQQQHQSSHSHLKSFGSKLGNAAIFGAGASIGSDIVNNIF", "Flag": 304553}
{"molecule": "Myo5 WT (protein, UniProt Q04439 1-1219, looked up) Myosin-5: MAILKRGARKKVHQEPAKRSANIKKATFDSSKKKEVGVSDLTLLSKISDEAINENLKKRFLNATIYTYIGHVLISVNPFRDLGIYTDAVMNEYKGKNRLEVPPHVFAIAESMYYNMKSYNENQCVIISGESGAGKTEAAKRIMQYIAAASSTHTESIGKIKDMVLATNPLLESFGCAKTLRNNNSSRHGKYLEIKFNNQFEPCAGNITNYLLEKQRVVSQIKNERNFHIFYQFTKGASDAYRQTFGVQKPEQYVYTAAAGCISAETIDDLQDYQETLKAMRVIGLGQEEQDQIFRMLAAILWIGNVSFIENEEGNAQVRDTSVTDFVAYLLQIDSQLLIKSLVERIMETNHGMKRGSVYHVPLNIVQADAVRDALAKAIYNNLFDWIVSRVNKSLQAFPGAEKSIGILDIYGFEIFEHNSFEQICINYVNEKLQQIFIQLTLKSEQETYEREKIQWTPIKYFDNKVVCDLIEARRPPGIFAAMNDSVATAHADSNAADQAFAQRLNLFTTNPHFDLRSNKFVIKHYAGDVTYDIDGITDKNKDQLQKDLVELIGTTTNTFLATIFPDTVDRESKRRPPTAGDKIIKSANDLVETLSKAQPSYIRTIKPNETKSPNDYDDRQVLHQIKYLGLQENVRIRRAGFAYRQVFEKFVERFYLLSPHCSYAGDYTWQGDTLDAVKYILQDSSIPQQEYQLGVTSVFIKTPETLFALEHMRDRYWHNMAARIQRAWRRFLQRRIDAATKIQRTIRERKEGNKYEKLRDYGTKVLGGRKERRSMSLLGYRAFMGDYLSCNESKSKGAYIKRQVSIKEKVIFSIHGEALHTKFGRSAQRLKKTFLLTPTTLYIVGQTLVQNAMTYTQDYKIDVRNIQAVSLTNLQDDWVAIKLASSGQPDPLINTYFKTELITHLKRLNDKIQIKIGSAIEYQKKPGKLHSVKCQINESAPKYGDIYKSSTISVRRGNPPNSQVHKKPRKKSSISSGYHASSSQATRRPVSIAAAQHVPTAPASRHSKKPAPPPPGMQNKAATRRSVPNPASTLTASQSNARPSPPTAATRATPAATPAAAAMGSGRQANIPPPPPPPPPSSKPKEPMFEAAYDFPGSGSPSELPLKKGDVIYITREEPSGWSLGKLLDGSKEGWVPTAYMKPHSGNNNIPTPPQNRDVPKPVLNSVQHDNTSANVIPAAAQASLGDGLANALAARANKMRLESDDEEANEDEEEDDW", "Flag": 93590}
{"molecule": "Nbp2 WT (protein, UniProt Q12163 1-236, looked up) NAP1-binding protein 2: MATMETTTQKDTNILKSGLKKTIGVLNEAVLQNGREVEAVQAGNSDTMEDTETTTIGYISIKDYAYADSNPLHYGYFDGDNEEDEMVSDSSNGEDTYNKRQSITLPDDYIVNQRAVALYDFEPENDNELRLAEGDIVFISYKHGQGWLVAENESGSKTGLVPEEFVSYIQPEDGENEVENKARPFYLTHLITQSVSPKNNIDNTNEDEYDDNDEWEDIDDVAEVEADMKTKLDISD", "Flag": 158710}
{"molecule": "Sla1 WT (protein, UniProt P32790 1-1244, looked up) Actin cytoskeleton-regulatory …: MTVFLGIYRAVYAYEPQTPEELAIQEDDLLYLLQKSDIDDWWTVKKRVIGSDSEEPVGLVPSTYIEEAPVLKKVRAIYDYEQVQNADEELTFHENDVFDVFDDKDADWLLVKSTVSNEFGFIPGNYVEPENGSTSKQEQAPAAAEAPAATPAAAPASAAVLPTNFLPPPQHNDRARMMQSKEDQAPDEDEEGPPPAMPARPTATTETTDATAAAVRSRTRLSYSDNDNDDEEDDYYYNSNSNNVGNHEYNTEYHSWNVTEIEGRKKKKAKLSIGNNKINFIPQKGTPHEWSIDKLVSYDNEKKHMFLEFVDPYRSLELHTGNTTTCEEIMNIIGEYKGASRDPGLREVEMASKSKKRGIVQYDFMAESQDELTIKSGDKVYILDDKKSKDWWMCQLVDSGKSGLVPAQFIEPVRDKKHTESTASGIIKSIKKNFTKSPSRSRSRSRSKSNANASWKDDELQNDVVGSAAGKRSRKSSLSSHKKNSSATKDFPNPKKSRLWVDRSGTFKVDAEFIGCAKGKIHLHKANGVKIAVAADKLSNEDLAYVEKITGFSLEKFKANDGSSSRGTDSRDSERERRRRLKEQEEKERDRRLKERELYELKKARELLDEERSRLQEKELPPIKPPRPTSTTSVPNTTSVPPAESSNNNNSSNKYDWFEFFLNCGVDVSNCQRYTINFDREQLTEDMMPDINNSMLRTLGLREGDIVRVMKHLDKKFGRENIASIPTNATGNMFSQPDGSLNVATSPETSLPQQLLPQTTSPAQTAPSTSAETDDAWTVKPASKSESNLLSKKSEFTGSMQDLLDLQPLEPKKAAASTPEPNLKDLEPVKTGGTTVPAAPVSSAPVSSAPAPLDPFKTGGNNILPLSTGFVMMPMITGGDMLPMQRTGGFVVPQTTFGMQSQVTGGILPVQKTGNGLIPISNTGGAMMPQTTFGAAATVLPLQKTGGGLIPIATTGGAQFPQTSFNVQGQQQLPTGSILPVQKTANGLISANTGVSMPTVQRTGGTMIPQTSFGVSQQLTGGAMMTQPQNTGSAMMPQTSFNAVPQITGGAMMPQTSFNALPQVTGGAMMPLQRTGGALNTFNTGGAMIPQTSFSSQAQNTGGFRPQSQFGLTLQKTGGIAPLNQNQFTGGAMNTLSTGGVLQQQQPQTMNTFNTGGVMQELQMMTTFNTGGAMQQPQMMNTFNTDGIMQQPQMMNTFNTGGAMQQPQQQALQNQPTGFGFGNGPQQSRQANIFNATASNPFGF", "Flag": 58812}
{"molecule": "Boi2 WT (protein, UniProt P39969 1-1040, looked up) BEM1-interacting protein 2: MSNDREVPTLSQLNTTVSRDKDVSDTLSPDFDSKGSATGRDGGNFPMYIAINEYFKRMEDELDMKPGDKIKVITDDEEYKDGWYFGRNLRTNEEGLYPVVFTQKITVEKAPTLMRAKSTKRIYSPLTNEDPLLSSTFISENDSNSELPTPQPIETAASISRTANGKIERNLSLKNTMSDIDNALLEFKDDSIGPPDRFINSGRDEEHSITHETILSATDGLDVVESNSKPTTSSSTGFLNGDLENQATLINGIDTTKLNPVEAEFWSPEEITAYFIMEGYDVQSASRFQKHKISGKILLELELVHLKELDINSFGTRFEIFKEIEKIKEAIRTNGRSLNRASKTNNANIYNQLMPPANVDQRASYRGHVRKTSQSLEDLPSQQNFIPTPRNTRNSSASKHRPKSLVFDSQEANANIAPDVQIPQVVEEMAGNENLFVSPRRAPKPPSYPSPAQPPKSPLLNNTRTSPSPAQLYSWQSPTLSFSGPKRTSYIDQYSSSDSNFNSRSALPKNNQGGGKALSPIPSPTRNSVRNEDSEGKLTSSSKRNSVPYYGYAPESSSDRKSSCSSHEEEQFQETMNTFERPTSSIYADGSTIASISNDKLAHEKEGKKKPTRHSSSLSSKSKSDSRRNSSLKRSSSASRTSSFKKSSFMLSPFRQQFTDNAARSSSPEENPITSMPSEKNSSPIVDKKSSKKSRSKRRSVSAKEAEIFTETVKDDKNKRSASEAIKGETLKGKSLRQMTARPVAKKKQTSAFIEGLRSISVKEAMKDADFSGWMSKKGSGAMSTWKTRFFTLHGTRLSYFSSTTDTRERGLIDITAHRVVPAKEDDKLVSLYAASTGKGRYCFKLLPPQPGSKKGLTFTQPRTHYFAVDNKEEMRGWMAALIKTTIDIDTSVPIISSYTTPTVSLSKAQEMLAEAREETKLREQQMLENEEDEDQFLWDQQQLQQQQHDNNQGQADRTISASTQRTSDEDNTISTPNLSSANNTTIGSNGFSSPFLLASGLLSPGVARNSSMRGTEKKGKFSTEEDYFGDNSKHKTDKI", "Flag": 12024}
{"molecule": "Abp1 WT (protein, UniProt P15891 2-592, looked up) Actin-binding protein: ALEPIDYTTHSREIDAEYLKIVRGSDPDTTWLIISPNAKKEYEPESTGSSFHDFLQLFDETKVQYGLARVSPPGSDVEKIIIIGWCPDSAPLKTRASFAANFAAVANNLFKGYHVQVTARDEDDLDENELLMKISNAAGARYSIQTSSKQQGKASTPPVKKSFTPSKSPAPVSKKEPVKTPSPAPAAKISSRVNDNNDDDDWNEPELKERDFDQAPLKPNQSSYKPIGKIDLQKVIAEEKAKEDPRLVQKPTAAGSKIDPSSDIANLKNESKLKRDSEFNSFLGTTKPPSMTESSLKNDDDKVIKGFRNEKSPAQLWAERKAKQNSGNAETKAEAPKPEVPEDEPEGEPDVKDLKSKFEGLAASEKEEEEMENKFAPPPKKSEPTIISPKPFSKPQEPVKAEEAEQPKTDYKKIGNPLPGMHIEADNEEEPEENDDDWDDDEDEAAQPPLPSRNVASGAPVQKEEPEQEEIAPSLPSRNSIPAPKQEEAPEQAPEEEIEEEAEEAAPQLPSRSSAAPPPPPRRATPEKKPKENPWATAEYDYDAAEDNELTFVENDKIINIEFVDDDWWLGELEKDGSKGLFPSNYVSLGN", "Flag": 9263}
